Measured values published in publication PMC3663845.

Molecular target: active (cleaved) presenilin of γ-secretase, marked at the active site by the inhibitor GTB (mouse (endogenous in primary hippocampal neurons))
Test: proximity ligation; in situ PLA with 200 nM GTB (photoreactive biotinylated γ-secretase inhibitor, UV-irradiated, probed with streptavidin-oligonucleotide PLUS) in place of the PS antibody and mouse nicastrin-CT antibody (anti-mouse MINUS probe); fixed, 0.4% CHAPSO-permeabilised mouse primary hippocampal neurons; 10 µM L-685,458 as competitor of GTB in the control

- PLA signals per cell: 214 signals/cell
- fold increase of PLA signals over the sum of the negative controls (first way of calculating): 4.5 fold
- fold increase of PLA signals over the sum of the negative controls (second way of calculating): 4.5 fold
Substance: nicastrin (from UniProt P57716 28-708) (natural protein)
